According to PMC3139566 (Biochemistry, 2011):
Values belong to the binder of their own block, whether it stands above or below them. Where no end group is shown, it is not given here. [ ]: non-standard residue; d: D form. pY = N[C@@H](Cc1ccc(OP(=O)(O)O)cc1)C(=O)O

Columns and labels:
[1] = target: T1, Fe65 N-term-WW-PID1-PID2 1-662 (human, UniProt O00213-2 1-662); assay: SPR
T1 sequence (looked up): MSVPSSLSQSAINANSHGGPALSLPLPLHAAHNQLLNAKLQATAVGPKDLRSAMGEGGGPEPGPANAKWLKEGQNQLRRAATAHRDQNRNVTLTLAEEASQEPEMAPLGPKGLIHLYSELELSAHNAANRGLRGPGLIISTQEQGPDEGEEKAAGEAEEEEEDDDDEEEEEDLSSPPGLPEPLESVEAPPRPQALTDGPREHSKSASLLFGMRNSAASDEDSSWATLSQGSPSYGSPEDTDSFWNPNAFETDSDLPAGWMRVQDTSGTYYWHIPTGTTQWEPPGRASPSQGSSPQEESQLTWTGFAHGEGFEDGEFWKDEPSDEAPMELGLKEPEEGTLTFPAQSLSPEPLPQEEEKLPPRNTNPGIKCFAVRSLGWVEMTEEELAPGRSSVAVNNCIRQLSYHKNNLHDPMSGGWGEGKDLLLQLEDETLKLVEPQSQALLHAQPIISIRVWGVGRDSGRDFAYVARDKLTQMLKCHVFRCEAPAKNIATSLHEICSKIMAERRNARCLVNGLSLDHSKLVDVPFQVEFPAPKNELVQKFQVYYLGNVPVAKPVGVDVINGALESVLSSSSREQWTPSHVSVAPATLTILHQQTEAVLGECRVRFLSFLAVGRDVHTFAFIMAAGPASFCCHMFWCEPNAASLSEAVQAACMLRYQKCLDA

[2] = target: T2, Fe65 WW-PID1 236-512 (human, UniProt O00213-2 236-512); assay: fluorescence polarisation
T2 sequence (looked up): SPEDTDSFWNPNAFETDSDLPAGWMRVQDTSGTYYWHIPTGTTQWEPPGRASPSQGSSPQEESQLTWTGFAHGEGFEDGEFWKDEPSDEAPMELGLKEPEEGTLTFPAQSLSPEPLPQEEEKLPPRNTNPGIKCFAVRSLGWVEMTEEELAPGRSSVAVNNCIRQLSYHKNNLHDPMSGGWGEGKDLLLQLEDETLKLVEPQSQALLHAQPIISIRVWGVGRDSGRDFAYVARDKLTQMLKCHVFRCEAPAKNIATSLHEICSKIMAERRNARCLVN

[3] = target: T3, Fe65 WW-PID1-PID2 236-662 (human, UniProt O00213-2 236-662); assay: fluorescence polarisation
T3 sequence (looked up): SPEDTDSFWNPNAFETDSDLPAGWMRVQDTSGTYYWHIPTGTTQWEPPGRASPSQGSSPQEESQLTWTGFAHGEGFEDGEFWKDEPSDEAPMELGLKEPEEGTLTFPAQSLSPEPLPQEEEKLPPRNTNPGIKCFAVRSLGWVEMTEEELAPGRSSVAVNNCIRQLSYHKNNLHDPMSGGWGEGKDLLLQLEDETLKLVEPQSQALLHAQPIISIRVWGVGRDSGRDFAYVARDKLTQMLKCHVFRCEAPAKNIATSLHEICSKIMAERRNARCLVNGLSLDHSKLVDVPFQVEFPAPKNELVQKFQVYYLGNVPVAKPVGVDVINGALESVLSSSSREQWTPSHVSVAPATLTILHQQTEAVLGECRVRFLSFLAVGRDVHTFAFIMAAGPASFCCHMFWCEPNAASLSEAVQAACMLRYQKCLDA

Kd [1]: 2.5 ± 0.35 µM
B1: APP Intracellular Domain (AICD, residues 649-695), biotinylated at the N-terminal cysteine (domain or fragment)
chain: GSKLCKKKQYTSIHHGVVEVDAAVTPEERHLSKMQQNGYENPTYKFFEQMQN
modifications: biotin (biotin-maleimide) on the N-terminal cysteine

Kd [2]: 66.7 µM | Kd [3]: 48.3 µM
B2: LRP4488 phosphorylated at Y4507 (pYLRP4488) labeled with Oregon Green 488 (domain or fragment, human)
chain: C(Oregon Green 488 maleimide)LDADFALDPDKPTNFTNPV[pY]ATLYMGGHGSRHSLASTDEKRELLGRGPEDEIGDPLA
